Molecular target: T1, pKal (Homo sapiens, UniProt P03952)
T1 construct: two disulfide linked polypeptides; a heavy chain of approximately 52 kDa and a catalytic domain of approximately 34 kDa; host or cells: human plasma
Assay: Fab fragments (small scale) tested for inhibition against human pKal in an in vitro protease cleavage assay
Assay type: biochemical
Settings: Table 9
Experimental: By DNA sequencing, we recovered 61 of the possible 80 antibodies (Table 9). These antibodies were produced as Fab fragments in small scale (˜20 μg) and tested for inhibition against human pKal in an in vitro protease cleavage assay using Pro-Phe-Arg-aminomethylcoumarin as the synthetic peptide substrate. […] Five antibodies were then expressed in 293T cells and purified by protein A sepharose chromatography. The antibodies were analyzed by SDS-PAGE to determine which of the inhibitory mutants are not cleaved by the host cell protease(s) (data not shown).

T1 sequence (P03952 391-638 limits assumed): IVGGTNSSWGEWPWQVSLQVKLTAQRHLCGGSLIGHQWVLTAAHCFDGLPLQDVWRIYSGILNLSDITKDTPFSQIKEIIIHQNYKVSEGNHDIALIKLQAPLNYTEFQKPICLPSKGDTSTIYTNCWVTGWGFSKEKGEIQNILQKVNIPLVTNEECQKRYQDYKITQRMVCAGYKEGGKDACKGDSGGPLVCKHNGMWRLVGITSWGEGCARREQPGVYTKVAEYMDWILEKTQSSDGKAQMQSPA
T1 sequence (P03952 20-390 partner limits assumed): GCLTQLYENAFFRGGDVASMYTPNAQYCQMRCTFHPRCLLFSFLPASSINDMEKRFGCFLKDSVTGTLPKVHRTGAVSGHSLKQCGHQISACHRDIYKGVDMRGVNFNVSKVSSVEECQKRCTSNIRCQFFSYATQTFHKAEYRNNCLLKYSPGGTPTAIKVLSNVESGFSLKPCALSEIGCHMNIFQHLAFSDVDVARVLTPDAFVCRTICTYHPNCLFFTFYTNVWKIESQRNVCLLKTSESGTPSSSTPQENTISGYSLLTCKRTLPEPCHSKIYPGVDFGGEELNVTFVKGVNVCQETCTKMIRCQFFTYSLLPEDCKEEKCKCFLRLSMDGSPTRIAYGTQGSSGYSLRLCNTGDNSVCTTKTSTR

Row | Molecule | Inhibit as a Fab?
1 | X68-E12: single point mutation of M142-H08 (P3); HV-CDR3 GGLLLCFRELKSNYFDY (antibody, V domains shown) VL: QDIQMTQSPSSLSAFVGDRVTITCRASQPIDNYLNWYHQKPGKAPKLLIYAASRLQSGVPSRLSGSGFGTDFTLTISSLQPEDFGNYYCQQSYTVPYTFGGGTKVEIR VH: EVQLLESGGGLVQPGGSLRLSCAASGFTFSAYSMIWVRQAPGKGLEWVSYIRPSGGRTTYADSVKGRFTISRDNSKNTLYLQMNSLRAEDTAVYYCARGGLLLCFRELKSNYFDYWGQGTLVTVSSASTKGPSVFPLAPSSKS | No
2 | X68-E01: single point mutation of M142-H08 (P3); HV-CDR3 GGLLLLFRELKSNYFDY (antibody, V domains shown) VL: QDIQMTQSPSSLSAFVGDRVTITCRASQPIDNYLNWYHQKPGKAPKLLIYAASRLQSGVPSRLSGSGFGTDFTLTISSLQPEDFGNYYCQQSYTVPYTFGGGTKVEIR VH: EVQLLESGGGLVQPGGSLRLSCAASGFTFSAYSMIWVRQAPGKGLEWVSYIRPSGGRTTYADSVKGRFTISRDNSKNTLYLQMNSLRAEDTAVYYCARGGLLLLFRELKSNYFDYWGQGTLVTVSSASTKGPSVFPLAPSSKS | Yes
3 | X68-A12: single point mutation of M142-H08 (P3); HV-CDR3 GGLLLGFRELKSNYFDY (antibody, V domains shown) VL: QDIQMTQSPSSLSAFVGDRVTITCRASQPIDNYLNWYHQKPGKAPKLLIYAASRLQSGVPSRLSGSGFGTDFTLTISSLQPEDFGNYYCQQSYTVPYTFGGGTKVEIR VH: EVQLLESGGGLVQPGGSLRLSCAASGFTFSAYSMIWVRQAPGKGLEWVSYIRPSGGRTTYADSVKGRFTISRDNSKNTLYLQMNSLRAEDTAVYYCARGGLLLGFRELKSNYFDYWGQGTLVTVSSASTKGPSVFPLAPSSKS | No
4 | X68-H04: single point mutation of M142-H08 (P3); HV-CDR3 GGLLLVFRELKSNYFDY (antibody, V domains shown) VL: QDIQMTQSPSSLSAFVGDRVTITCRASQPIDNYLNWYHQKPGKAPKLLIYAASRLQSGVPSRLSGSGFGTDFTLTISSLQPEDFGNYYCQQSYTVPYTFGGGTKVEIR VH: EVQLLESGGGLVQPGGSLRLSCAASGFTFSAYSMIWVRQAPGKGLEWVSYIRPSGGRTTYADSVKGRFTISRDNSKNTLYLQMNSLRAEDTAVYYCARGGLLLVFRELKSNYFDYWGQGTLVTVSSASTKGPSVFPLAPSSKS | No
5 | X68-D11: single point mutation of M142-H08 (P3); HV-CDR3 GGLLLKFRELKSNYFDY (antibody, V domains shown) VL: QDIQMTQSPSSLSAFVGDRVTITCRASQPIDNYLNWYHQKPGKAPKLLIYAASRLQSGVPSRLSGSGFGTDFTLTISSLQPEDFGNYYCQQSYTVPYTFGGGTKVEIR VH: EVQLLESGGGLVQPGGSLRLSCAASGFTFSAYSMIWVRQAPGKGLEWVSYIRPSGGRTTYADSVKGRFTISRDNSKNTLYLQMNSLRAEDTAVYYCARGGLLLKFRELKSNYFDYWGQGTLVTVSSASTKGPSVFPLAPSSKS | No
6 | X68-G01: single point mutation of M142-H08 (P3); HV-CDR3 GGLLLRFRELKSNYFDY (antibody, V domains shown) VL: QDIQMTQSPSSLSAFVGDRVTITCRASQPIDNYLNWYHQKPGKAPKLLIYAASRLQSGVPSRLSGSGFGTDFTLTISSLQPEDFGNYYCQQSYTVPYTFGGGTKVEIR VH: EVQLLESGGGLVQPGGSLRLSCAASGFTFSAYSMIWVRQAPGKGLEWVSYIRPSGGRTTYADSVKGRFTISRDNSKNTLYLQMNSLRAEDTAVYYCARGGLLLRFRELKSNYFDYWGQGTLVTVSSASTKGPSVFPLAPSSKS | No
7 | X69-H10: single point mutation of M142-H08 (P1′); HV-CDR3 GGLLLWFRYLKSNYFDY (antibody, V domains shown) VL: QDIQMTQSPSSLSAFVGDRVTITCRASQPIDNYLNWYHQKPGKAPKLLIYAASRLQSGVPSRLSGSGFGTDFTLTISSLQPEDFGNYYCQQSYTVPYTFGGGTKVEIR VH: EVQLLESGGGLVQPGGSLRLSCAASGFTFSAYSMIWVRQAPGKGLEWVSYIRPSGGRTTYADSVKGRFTISRDNSKNTLYLQMNSLRAEDTAVYYCARGGLLLWFRYLKSNYFDYWGQGTLVTVSSASTKGPSVFPLAPSSKS | No
8 | X67-G01: single point mutation of M142-H08 (P2); HV-CDR3 GGLLLWCRELKSNYFDY (antibody, V domains shown) VL: QDIQMTQSPSSLSAFVGDRVTITCRASQPIDNYLNWYHQKPGKAPKLLIYAASRLQSGVPSRLSGSGFGTDFTLTISSLQPEDFGNYYCQQSYTVPYTFGGGTKVEIR VH: EVQLLESGGGLVQPGGSLRLSCAASGFTFSAYSMIWVRQAPGKGLEWVSYIRPSGGRTTYADSVKGRFTISRDNSKNTLYLQMNSLRAEDTAVYYCARGGLLLWCRELKSNYFDYWGQGTLVTVSSASTKGPSVFPLAPSSKS | No
9 | X68-D10: single point mutation of M142-H08 (P3); HV-CDR3 GGLLLPFRELKSNYFDY (antibody, V domains shown) VL: QDIQMTQSPSSLSAFVGDRVTITCRASQPIDNYLNWYHQKPGKAPKLLIYAASRLQSGVPSRLSGSGFGTDFTLTISSLQPEDFGNYYCQQSYTVPYTFGGGTKVEIR VH: EVQLLESGGGLVQPGGSLRLSCAASGFTFSAYSMIWVRQAPGKGLEWVSYIRPSGGRTTYADSVKGRFTISRDNSKNTLYLQMNSLRAEDTAVYYCARGGLLLPFRELKSNYFDYWGQGTLVTVSSASTKGPSVFPLAPSSKS | No
10 | X68-E03: single point mutation of M142-H08 (P3); HV-CDR3 GGLLLEFRELKSNYFDY (antibody, V domains shown) VL: QDIQMTQSPSSLSAFVGDRVTITCRASQPIDNYLNWYHQKPGKAPKLLIYAASRLQSGVPSRLSGSGFGTDFTLTISSLQPEDFGNYYCQQSYTVPYTFGGGTKVEIR VH: EVQLLESGGGLVQPGGSLRLSCAASGFTFSAYSMIWVRQAPGKGLEWVSYIRPSGGRTTYADSVKGRFTISRDNSKNTLYLQMNSLRAEDTAVYYCARGGLLLEFRELKSNYFDYWGQGTLVTVSSASTKGPSVFPLAPSSKS | No
11 | X68-F12: single point mutation of M142-H08 (P3); HV-CDR3 GGLLLTFRELKSNYFDY (antibody, V domains shown) VL: QDIQMTQSPSSLSAFVGDRVTITCRASQPIDNYLNWYHQKPGKAPKLLIYAASRLQSGVPSRLSGSGFGTDFTLTISSLQPEDFGNYYCQQSYTVPYTFGGGTKVEIR VH: EVQLLESGGGLVQPGGSLRLSCAASGFTFSAYSMIWVRQAPGKGLEWVSYIRPSGGRTTYADSVKGRFTISRDNSKNTLYLQMNSLRAEDTAVYYCARGGLLLTFRELKSNYFDYWGQGTLVTVSSASTKGPSVFPLAPSSKS | No
12 | X68-F05: single point mutation of M142-H08 (P3); HV-CDR3 GGLLLMFRELKSNYFDY (antibody, V domains shown) VL: QDIQMTQSPSSLSAFVGDRVTITCRASQPIDNYLNWYHQKPGKAPKLLIYAASRLQSGVPSRLSGSGFGTDFTLTISSLQPEDFGNYYCQQSYTVPYTFGGGTKVEIR VH: EVQLLESGGGLVQPGGSLRLSCAASGFTFSAYSMIWVRQAPGKGLEWVSYIRPSGGRTTYADSVKGRFTISRDNSKNTLYLQMNSLRAEDTAVYYCARGGLLLMFRELKSNYFDYWGQGTLVTVSSASTKGPSVFPLAPSSKS | No
13 | X68-A03: single point mutation of M142-H08 (P3); HV-CDR3 GGLLLDFRELKSNYFDY (antibody, V domains shown) VL: QDIQMTQSPSSLSAFVGDRVTITCRASQPIDNYLNWYHQKPGKAPKLLIYAASRLQSGVPSRLSGSGFGTDFTLTISSLQPEDFSNYYCQQSYTVPYTFGGGTKVEIR VH: EVQLLESGGGLVQPGGSLRLSCAASGFTFSAYSMIWVRQAPGKGLEWVSYIRPSGGRTTYADSVKGRFTISRDNSKNTLYLQMNSLRAEDTAVYYCARGGLLLDFRELKSNYFDYWGQGTLVTVSSASTKGPSVFPLAPSSKS | No
14 | X68-G05: single point mutation of M142-H08 (P3); HV-CDR3 GGLLLSFRELKSNYFDY (antibody, V domains shown) VL: QDIQMTQSPSSLSAFVGDRVTITCRASQPIDNYLNWYHQKPGKAPKLLIYAASRLQSGVPSRLSGSGFGTDFTLTISSLQPEDFGNYYCQQSYTVPYTFGGGTKVEIR VH: EVQLLESGGGLVQPGGSLRLSCAASGFTFSAYSMIWVRQAPGKGLEWVSYIRPSGGRTTYADSVKGRFTISRDNSKNILYLQMNSLRAEDTAVYYCARGGLLLSFRELKSNYFDYWGQGTLVTVSSASTKGPSVFPLAPSSKS | No
15 | X68-F10: single point mutation of M142-H08 (P3); HV-CDR3 GGLLLQFRELKSNYFDY (antibody, V domains shown) VL: QDIQMTQSPSSLSAFVGDRVTITCRASQPIDNYLNWYHQKPGKAPKLLIYAASRLQSGVPSRLSGSGFGTDFTLTISSLQPEDFGNYYCQQSYTVPYTFGGGTKVEIR VH: EVQLLESGGGLVQPGGSLRLSCAASGFTFSAYSMIWVRQAPGKGLEWVSYIRPSGGRTTYADSVKGRFTISRDNSKNTLYLQMNSLRAEDTAVYYCARGGLLLQFRELKSNYFDYWGQGTLVTVSSASTKGPSVFPLAPSSKS | No
